Measurements taken from the supplement of paper PMC9112550, “Optimization of the antimicrobial peptide Bac7 by deep mutational scanning” (BMC Biology, 2022).

test system: Escherichia coli TOP10; experiment: shrunken log2 fold change of peptide-encoding DNA abundance (4.5 h post-induction vs induction); higher = less antimicrobial activity (less host growth inhibition); settings: time post-induction: 4.5 h; library: site-saturation at positions 5, 18, 19, 20
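Also: peptides expressed intracellularly from a pBAD plasmid library in pooled LB shake-flask culture, induced with 0.3% L-arabinose, DNA abundance read by NGS, three biological replicates, DESeq2 with apeglm shrinkage.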

Sequence | shrunken log2 fold change
RRIRYRPPRLPRPRPRPIFEPRP | -0.833
RRIRIRPPRLPRPRPRPSFWPRP | 0.059
RRIRVRPPRLPRPRPRPLIDPRP | 0.119
RRIRRRPPRLPRPRPRPPPQPRP | 1.27
RRIRRRPPRLPRPRPRPTQRPRP | 0.625
RRIRCRPPRLPRPRPRPACMPRP | -0.162
RRIRNRPPRLPRPRPRPYTLPRP | -0.288
RRIRARPPRLPRPRPRPCKMPRP | 0.145
RRIRSRPPRLPRPRPRPKQAPRP | -0.0378
RRIRVRPPRLPRPRPRPAGVPRP | 0.283
RRIRARPPRLPRPRPRPIYIPRP | 2.43
RRIRSRPPRLPRPRPRPNIIPRP | -0.774
RRIRQRPPRLPRPRPRPDHKPRP | -0.0609
RRIRNRPPRLPRPRPRPSDNPRP | -0.494
RRIRSRPPRLPRPRPRPCDKPRP | -0.324
RRIRFRPPRLPRPRPRPKIAPRP | -0.0112
RRIRHRPPRLPRPRPRPVNMPRP | -0.00401
RRIRWRPPRLPRPRPRPHYMPRP | -0.825
RRIRERPPRLPRPRPRPSMAPRP | -0.192
RRIRDRPPRLPRPRPRPQMEPRP | 0.00785
RRIRNRPPRLPRPRPRPNIQPRP | -0.748
RRIRKRPPRLPRPRPRPMKLPRP | 0.0347

Sequence | shrunken log2 fold change
RRIRERPPRLPRPRPRPHFMPRP | -0.221
RRIRQRPPRLPRPRPRPGVAPRP | 0.207
RRIRVRPPRLPRPRPRPGAWPRP | 0.323
RRIRFRPPRLPRPRPRPTMYPRP | -0.459
RRIRVRPPRLPRPRPRPTIMPRP | -0.411
RRIRKRPPRLPRPRPRPDANPRP | -0.0872
RRIRCRPPRLPRPRPRPWWGPRP | 0.0769
RRIRSRPPRLPRPRPRPYKCPRP | -0.137
RRIRTRPPRLPRPRPRPPWEPRP | 0.506
RRIRQRPPRLPRPRPRPCRGPRP | 0.104
RRIRYRPPRLPRPRPRPTELPRP | 0.0588
RRIRHRPPRLPRPRPRPYNYPRP | -0.00747
RRIRGRPPRLPRPRPRPVLQPRP | 0.142
RRIRPRPPRLPRPRPRPAESPRP | 0.44
RRIRWRPPRLPRPRPRPQRMPRP | 0.0753
RRIRVRPPRLPRPRPRPRNGPRP | 0.0197
RRIRYRPPRLPRPRPRPHLEPRP | -0.021
RRIRFRPPRLPRPRPRPNFEPRP | -0.0264
RRIRMRPPRLPRPRPRPPIRPRP | 0.248
RRIRNRPPRLPRPRPRPIDPPRP | -0.127
RRIRLRPPRLPRPRPRPLVTPRP | 0.000277
RRIRTRPPRLPRPRPRPMVYPRP | -0.09

Sequence | shrunken log2 fold change
RRIRERPPRLPRPRPRPPQKPRP | -0.0624
RRIRSRPPRLPRPRPRPWNIPRP | -0.0599
RRIRDRPPRLPRPRPRPMIVPRP | 0.00989
RRIRERPPRLPRPRPRPLDTPRP | 0.213
RRIRMRPPRLPRPRPRPDTPPRP | 0.872
RRIRCRPPRLPRPRPRPCYAPRP | -0.387
RRIRARPPRLPRPRPRPFYAPRP | -0.066
RRIRPRPPRLPRPRPRPHTPPRP | -0.0561
RRIRDRPPRLPRPRPRPNSEPRP | 0.261
RRIRKRPPRLPRPRPRPQNIPRP | -0.21
RRIRCRPPRLPRPRPRPGHQPRP | 0.242
RRIRYRPPRLPRPRPRPHGIPRP | 0.0191
RRIRSRPPRLPRPRPRPVSRPRP | -0.0166
RRIRVRPPRLPRPRPRPRSQPRP | 0.25
RRIRGRPPRLPRPRPRPFMCPRP | 0.224
RRIRIRPPRLPRPRPRPINPPRP | -0.362
RRIRERPPRLPRPRPRPVSKPRP | -0.201
RRIRLRPPRLPRPRPRPDLTPRP | 0.169
RRIRERPPRLPRPRPRPPIYPRP | -0.633
RRIRSRPPRLPRPRPRPRTEPRP | 0.00553
RRIRFRPPRLPRPRPRPGMYPRP | -0.076
RRIRERPPRLPRPRPRPWTTPRP | -0.0139

Sequence | shrunken log2 fold change
RRIRLRPPRLPRPRPRPWWIPRP | -0.107
RRIRERPPRLPRPRPRPTADPRP | 0.0264
RRIRLRPPRLPRPRPRPMHVPRP | -0.0348
RRIRSRPPRLPRPRPRPVVVPRP | 0.1
RRIRTRPPRLPRPRPRPMSWPRP | 0.0201
RRIRPRPPRLPRPRPRPLAEPRP | 0.322
RRIRYRPPRLPRPRPRPGTCPRP | -0.729
RRIRSRPPRLPRPRPRPEKHPRP | -0.211
RRIRMRPPRLPRPRPRPHFFPRP | -0.134
RRIRVRPPRLPRPRPRPWRWPRP | 0.48
RRIRHRPPRLPRPRPRPKSGPRP | -0.242
RRIRDRPPRLPRPRPRPPYAPRP | 0.0432
RRIRYRPPRLPRPRPRPMIFPRP | -1.43
RRIRWRPPRLPRPRPRPFCAPRP | 0.23
RRIRSRPPRLPRPRPRPYHAPRP | -8.39e-05
RRIRQRPPRLPRPRPRPVPNPRP | 0.154
RRIRNRPPRLPRPRPRPYPIPRP | -0.0592
RRIRRRPPRLPRPRPRPKTAPRP | 0.707
RRIRFRPPRLPRPRPRPIADPRP | -0.0956
RRIRTRPPRLPRPRPRPHHYPRP | -0.46
RRIRSRPPRLPRPRPRPCNEPRP | -1.09
RRIRQRPPRLPRPRPRPSQIPRP | -0.0855

Sequence | shrunken log2 fold change
RRIRKRPPRLPRPRPRPPEHPRP | 0.197
RRIRNRPPRLPRPRPRPQTSPRP | -0.346
RRIRQRPPRLPRPRPRPPAYPRP | 0.106
RRIRSRPPRLPRPRPRPMKMPRP | -0.0963
RRIRERPPRLPRPRPRPYEYPRP | -0.387
RRIRTRPPRLPRPRPRPKEFPRP | -0.0177
RRIRSRPPRLPRPRPRPPMYPRP | -0.549
RRIRMRPPRLPRPRPRPHQMPRP | 0.126
RRIRQRPPRLPRPRPRPDEGPRP | -0.106
RRIRRRPPRLPRPRPRPMVWPRP | 0.686
RRIRRRPPRLPRPRPRPFPDPRP | 0.255
RRIRDRPPRLPRPRPRPTKLPRP | 0.0975
RRIRWRPPRLPRPRPRPWYFPRP | 0.275
RRIRARPPRLPRPRPRPDLQPRP | 0.79
RRIRMRPPRLPRPRPRPDPSPRP | -0.0334
RRIRDRPPRLPRPRPRPGHDPRP | 0.207
RRIRNRPPRLPRPRPRPQGYPRP | -0.667
RRIRWRPPRLPRPRPRPAHQPRP | 0.176
RRIRHRPPRLPRPRPRPVDIPRP | -0.167
RRIRVRPPRLPRPRPRPCLCPRP | -0.491
RRIRQRPPRLPRPRPRPRALPRP | 0.125
